Experimental data as given in US20110124071A1, “METHODS AND COMPOSITIONS FOR PRODUCING HYDROCARBONS” (priority 2009, published 2011).

What was measured:
E. coli MG1655 = test: Coexpression of putative decarbonylase with S. elongatus PCC7942 orf1594 in E. coli, GC-MS of extracts; type: cell-based; conditions: coexpressed with S. elongatus PCC7942 orf1594 in E. coli MG1655, M9 minimal media
Protocol: After a 1 μl splitless injection (inlet temperature held at 300° C.) onto the GC/MS column, the oven was held at 100° C. for 3 mins. The temperature was ramped up to 320° C. at a rate of 20° C./min. The oven was held at 320° C. for an additional 5 min. The flow rate of the carrier gas helium was 1.3 ml/min. The MS quadrapole scanned from 50 to 550 m/z. Retention times and fragmentation patterns of product peaks were compared with authentic references to confirm peak identity.
The genomic DNA encoding Synechococcus elongatus PCC7942 orf1594 (YP—400611; putative aldehyde-generating enzyme) (SEQ ID NO: 65) was amplified and cloned into the NcoI and EcoRI sites of vector OP-80 (pCL1920 derivative) under the control of the Ptrc promoter. The resulting construct (“OP80-PCC7942—1594”) was transformed into E. coli MG1655 and the cells were grown at 37° C. in M9 minimal media with 1% (w/v) glucose as carbon source and supplemented with 100 μg/ml spectinomycin. When the culture reached OD600 of 0.8-1.0, it was induced with 1 mM IPTG and cells were grown for an additional 18-20 h at 37° C. Cells from 0.5 ml of culture were extracted with 0.5 ml of ethyl acetate. After sonication for 60 min, the sample was centrifuged at 15,000 rpm for 5 min. The solvent layer was analyzed by GC-MS as described in Example 1.
The genomic DNA encoding Synechococcus elongatus PCC7942 orf1593 (YP—400610; putative decarbonylase) (SEQ ID NO: 1) was amplified and cloned into the NdeI and XhoI sites of vector OP-183 (pACYC derivative) under the control of the Ptrc promoter. The resulting construct was cotransformed with OP80-PCC7942—1594 into E. coli MG1655 and the cells were grown at 37° C. in M9 minimal media supplemented with 100 μg/ml spectinomycin and 100 μg/ml carbenicillin. The cells were cultured and extracted as in Example 3 and analyzed by GC-MS as described in Example 1. […]

[1] = test system: E. coli MG1655 ΔfadD lacZ::Ptrc-′tesA; test: Heterologous expression in a fatty aldehyde-producing E. coli strain with MSMEG—5739, GC-MS; type: cell-based; conditions: decarbonylase coexpressed with carboxylic acid reductase MSMEG—5739

Row | Molecule | fatty aldehyde decarbonylase activity (alkane/alkene production) (E. coli MG1655) | conversion of fatty aldehydes provided by MSMEG—5739 to alkanes [1]
1 | PCC7942—1593: Synechococcus elongatus PCC7942 orf1593 putative decarbonylase (SEQ ID NO: 1) | active fatty aldehyde decarbonylase | –
2 | PMM0532: Prochlorococcus marinus CCMP1986 putative decarbonylase (SEQ ID NO: 19) (protein, listed as Prochlorococcus marinus) MQTLESNKKTNLENSIDLPDFTTDSYKDAYSRINAIVIEGEQEAHDNYISLATLIPNELEELTKLAKMELKHKRGFTACGRNLGVQADMIFAKEFFSKLHGNFQVALSNGKTTTCLLIQAILIEAFAISAYHVYIRVADPFAKKITQGVVKDEYLHLNYGQEWLKENLATCKDELMEANKVNLPLIKKMLDQVSEDASVLAMDREELMEEFMIAYQDTLLEIGLDNREIARMAMAAIV | active fatty aldehyde decarbonylase | converted fatty aldehydes provided by MSMEG—5739 to the corresponding alkanes
3 | Cyan7425—2986: Cyanothece sp. PCC7425 putative decarbonylase (SEQ ID NO: 31) (protein, listed as Cyanothece sp.) MSDCATNPALDYYSETYRNAYRRVNGIVIEGEKQAYDNFIRLAELLPEYQAELTRLAKMEARHQKSFVACGQNLKVSPDLDFAAQFFAELHQIFASAANAGQVATCLVVQALIIECFAIAAYNTYLPVADEFARKVTASVVQDEYSHLNFGEVWLQNAFEQCKDEIITANRLALPLIWKMLNQVTGELRILGMDKASLVEDFSTRYGEALGQIGFKLSEILSLSVQGLQAVTP | active fatty aldehyde decarbonylase | –
4 | ATCC51142 cce—0778: Cyanothece sp. ATCC51142 putative decarbonylase (SEQ ID NO: 27) (protein, listed as Cyanothece sp.) MQELALRSELDFNSETYKDAYSRINAIVIEGEQEAYQNYLDMAQLLPEDEAELIRLSKMENRHKKGFQACGKNLNVTPDMDYAQQFFAELHGNFQKAKAEGKIVTCLLIQSLIIEAFAIAAYNIYIPVADPFARKITEGVVKDEYTHLNFGEVWLKEHFEASKAELEDANKENLPLVWQMLNQVEKDAEVLGMEKEALVEDFMISYGEALSNIGFSTREIMKMSAYGLRAA | active fatty aldehyde decarbonylase | –
5 | alr5283: Nostoc sp. PCC7210 putative decarbonylase (SEQ ID NO: 7) (protein, listed as Nostoc sp.) MQQVAADLEIDFKSEKYKDAYSRINAIVIEGEQEAYENYIQLSQLLPDDKEDLIRLSKMESRHKKGFEACGRNLQVSPDMEFAKEFFAGLHGNFQKAAAEGKIVTCLLIQSLIIECFAIAAYNIYIPVADDFARKITEGVVKDEYSHLNFGEVWLQKNFAQSKAELEEANRHNLPIVWKMLNQVADDAAVLAMEKEALVEDFMIQYGEALSNIGFTTRDIMRMSAYGLTAA | active fatty aldehyde decarbonylase | converted fatty aldehydes provided by MSMEG—5739 to the corresponding alkanes
6 | Cyan7425—0398: Cyanothece sp. PCC7425 putative decarbonylase (SEQ ID NO: 29) (protein, listed as Cyanothece sp.) MPQVQSPSAIDFYSETYQDAYSRIDAIVIEGEQEAHDNYLKLTELLPDCQEDLVRLAKMEARHKKGFEACGRNLKVTPDMEFAQQFFADLHNNFQKAAAANKIATCLVIQALIIECFAIAAYNIYIPVADDFARKITENVVKDEYTHLNFGEEWLKANFDSQREEVEAANRENLPIVWRMLNQVETDAHVLGMEKEALVESFMIQYGEALENIGFSTREIMRMSVYGLSAA | active fatty aldehyde decarbonylase | –
7 | PMN2A—1863: Prochlorococcus mariunus NATL2A putative decarbonylase (SEQ ID NO: 21) (protein, listed as Prochlorococcus marinus) MQAFASNNLTVEKEELSSNSLPDFTSESYKDAYSRINAVVIEGEQEAYSNFLDLAKLIPEHADELVRLGKMEKKHMNGFCACGRNLAVKPDMPFAKTFFSKLHNNFLEAFKVGDTTTCLLIQCILIESFAISAYHVYIRVADPFAKRITEGVVQDEYLHLNYGQEWLKANLETVKKDLMRANKENLPLIKSMLDEVSNDAEVLHMDKEELMEEFMIAYQDSLLEIGLDNREIARMALAAVI | active fatty aldehyde decarbonylase | –
8 | RS9917—12945: Synechococcus sp. RS9917 putative decarbonylase (SEQ ID NO: 25) (protein, listed as Synechococcus sp.) MTQLDFASAAYREAYSRINGVVIVGEGLANRHFQMLARRIPADRDELQRLGRMEGDHASAFVGCGRNLGVVADLPLARRLFQPLHDLFKRHDHDGNRAECLVIQGLIVECFAVAAYRHYLPVADAYARPITAAVMNDESEHLDYAETWLQRHFDQVKARVSAVVVEALPLTLAMLQSLAADMRQIGMDPVETLASFSELFREALESVGFEAVEARRLLMRAAARMV | active fatty aldehyde decarbonylase | converted fatty aldehydes provided by MSMEG—5739 to the corresponding alkanes
9 | PM1231: Prochlorococcus marinus MIT9313 putative decarbonylase (SEQ ID NO: 17) (protein, listed as Prochlorococcus marinus) MPTLEMPVAAVLDSTVGSSEALPDFTSDRYKDAYSRINAIVIEGEQEAHDNYIAIGTLLPDHVEELKRLAKMEMRHKKGFTACGKNLGVEADMDFAREFFAPLRDNFQTALGQGKTPTCLLIQALLIEAFAISAYHTYIPVSDPFARKITEGVVKDEYTHLNYGEAWLKANLESCREELLEANRENLPLIRRMLDQVAGDAAVLQMDKEDLIEDFLIAYQESLTEIGFNTREITRMAAAALVS | active fatty aldehyde decarbonylase | –
10 | gll3146: Gloeobacter violaceus PCC7421 putative decarbonylase (SEQ ID NO: 15) (protein, listed as Gloeobacter violaceus) VNRTAPSSAALDYRSDTYRDAYSRINAIVLEGEREAHANYLTLAEMLPDHAEALKKLAAMENRHFKGFQSCARNLEVTPDDPFARAYFEQLDGNFQQAAAEGDLTTCMVIQALIIECFAIAAYNVYIPVADAFARKVTEGVVKDEYTHLNFGQQWLKERFVTVREGIERANAQNLPIVWRMLNAVEADTEVLQMDKEAIVEDFMIAYGEALGDIGFSMRDVMKMSARGLASAPRQ | active fatty aldehyde decarbonylase | converted fatty aldehydes provided by MSMEG—5739 to the corresponding alkanes
11 | tll1313: Thermosynechococcus elongatus BP-1 putative decarbonylase (SEQ ID NO: 11) (protein, listed as Thermosynechococcus elongatus) MTTATATPVLDYHSDRYKDAYSRINAIVIEGEQEAHDNYIDLAKLLPQHQEELTRLAKMEARHKKGFEACGRNLSVTPDMEFAKAFFEKLRANFQRALAEGKTATCLLIQALIIESFAIAAYNIYIPMADPFARKITESVVKDEYSHLNFGEIWLKEHFESVKGELEEANRANLPLVWKMLNQVEADAKVLGMEKDALVEDFMIQYSGALENIGFTTREIMKMSVYGLTGA | active fatty aldehyde decarbonylase | –
12 | RS991709941: Synechococcus sp. RS9917 putative decarbonylase (SEQ ID NO: 23) (protein, listed as Synechococcus sp.) MPTLETSEVAVLEDSMASGSRLPDFTSEAYKDAYSRINAIVIEGEQEAHDNYIALGTLIPEQKDELARLARMEMKHMKGFTSCGRNLGVEADLPFAKEFFAPLHGNFQAALQEGKVVTCLLIQALLIEAFAISAYHIYIPVADPFARKITEGVVKDEYTHLNYGQEWLKANFEASKDELMEANKANLPLIRSMLEQVAADAAVLQMEKEDLIEDFLIAYQEALCEIGFSSRDIARMAAAALAV | active fatty aldehyde decarbonylase | converted fatty aldehydes provided by MSMEG—5739 to the corresponding alkanes
